# PMC7528686 (Molecules and Cells, 2020)
# B1: CafA (residues 75-287), β-class carbonic anhydrase of Aspergillus fumigatus (enzyme, UniProt A4UTP0 75-287, looked up)
# chain: DSLSDKFSAALAKNKEWAAKCSQEHPELLPTLAVGQHPEILWIGCSDSRCPETTILGLLPGDVFTHRNIANVIHPADLSSGAVIEFAVRHLRVKHVVICGHTKCGGVAAALGNKGLGILDPWLIPLRQLREQHLAELQSLSRDEAVVRLAELNVKEGLKALTQKSVVLEAMQERGLQVHGLIYDVGSGFLRQLDAAEPEEALKARLTSFKTDA
# Biological target: the molecule itself
# Assay: SEC
protein,measurement,value
B1,stoichiometry N,4
